Test results: patent US20220251152A1, “COMPOSITIONS AND METHODS FOR SELECTIVE PROTEIN DEGRADATION” (Novartis AG, priority 2019, published 2022)

Molecular target: T1, IKZF3 136-180 and 236-249-tagged avian myelocytomatosis viral oncogene (MYC) homolog (Homo sapiens, UniProt Q96SW2+Q9UKT9, DEL181-196/S197T)
T1 construct: expressed in transfected cells; host or cells: HEK293T
Test: Western blot of IKZF3-tagged MYC in HEK293T cells
Assay type: cell-based
Settings: tag fused to N-terminus of MYC; lenalidomide 4 hours

T1 sequence (Q96SW2 whole entry, stated change not applied, one chain of several): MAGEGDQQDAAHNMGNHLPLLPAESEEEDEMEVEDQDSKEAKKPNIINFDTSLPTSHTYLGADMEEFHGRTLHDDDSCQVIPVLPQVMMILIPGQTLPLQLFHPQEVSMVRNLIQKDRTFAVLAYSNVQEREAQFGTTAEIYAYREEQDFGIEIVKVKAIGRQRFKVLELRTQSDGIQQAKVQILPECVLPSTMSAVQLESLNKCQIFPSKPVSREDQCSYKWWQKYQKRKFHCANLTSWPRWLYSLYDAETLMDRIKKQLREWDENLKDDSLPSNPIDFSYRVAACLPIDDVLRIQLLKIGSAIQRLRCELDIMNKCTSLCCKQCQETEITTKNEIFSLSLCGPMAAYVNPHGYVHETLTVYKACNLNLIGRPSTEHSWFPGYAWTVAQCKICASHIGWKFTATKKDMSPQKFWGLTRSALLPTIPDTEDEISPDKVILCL

In the case of “IKZF3 136-180 and 236-249: IKZF3-based degradation tag with amino acid residues 136-180 and 236-249 of human IKZF3, SEQ ID NO: 3 (HKRSHTGERPFQCNQCGASFTQKGNLLRHIKLHTGEKPFKCHLCNTASAEARHIKAEMG; source: /note="Description of Unknown: IKZF3 sequence")”, the “ability of the tag to mediate lenalidomide-dependent degradation of MYC” value is reported as “mediated the lenalidomide-dependent degradation of tagged MYC”.
